18 sequences from patent US20160177307 can be followed below.

As usually defined, the Kd is the equilibrium constant for the complex coming apart. A high value points to a looser complex. Usually Ki stands for a measure of affinity in units of concentration, obtained from inhibition or displacement. Broadly, the IC50 is the concentration that gives 50% inhibition. High values mean lower potency, low ones higher potency.

Data set [1] deals with T1, VEGF-165 (Homo sapiens), P15692-4.
T1 sequence: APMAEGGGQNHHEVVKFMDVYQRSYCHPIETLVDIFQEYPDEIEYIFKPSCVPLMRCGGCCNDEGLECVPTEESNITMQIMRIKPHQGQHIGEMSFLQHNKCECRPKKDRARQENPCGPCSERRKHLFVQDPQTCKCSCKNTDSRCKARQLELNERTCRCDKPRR
Put plainly: filter.

Data set [2] concerns T2, rVEGF164, P16612-2.
T2 sequence: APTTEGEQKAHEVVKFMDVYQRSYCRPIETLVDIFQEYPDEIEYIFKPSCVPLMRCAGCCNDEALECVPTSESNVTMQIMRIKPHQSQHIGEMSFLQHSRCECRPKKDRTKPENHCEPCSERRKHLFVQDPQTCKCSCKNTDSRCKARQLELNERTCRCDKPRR
Put plainly: filter. The settings on record: rest DNA, SB18T, 37 C.

In data set [3] the test system is T3, VEGF-121 (Homo sapiens), P15692-9.
T3 sequence: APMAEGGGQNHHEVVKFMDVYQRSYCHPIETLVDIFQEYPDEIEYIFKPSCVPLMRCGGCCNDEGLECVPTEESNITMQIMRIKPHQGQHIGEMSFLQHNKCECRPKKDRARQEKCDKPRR
Nature of the data set: competition. The settings on record: Nap-dU, 2'-OMe; head-to-tail dimer, no linker; VEGF isoform not given.

The target in data set [4] is PDGF-BB (platelet-derived growth factor BB) (Homo sapiens) (UniProt P01127). Put plainly: competition.
Data set [5] relates to T3, VEGF-121 (Homo sapiens), P15692-9. Put plainly: filter.
For data set [6] the test system is unchanged. Put plainly: cell_activity. To be noted: NapdU at P, VEGFR2 phosphorylation, HUVEC.
Data set [7] deals with PDGF-BB (platelet-derived growth factor BB) (Homo sapiens) (UniProt P01127). Nature of the data set: cell_activity.
The target is the same in data set [8]. Put plainly: filter.
Data set [9] has as its target PDGF-AB (UniProt P04085+P01127). Put plainly: filter.
For data set [10], the system named is T4, VEGF-164 (Rattus norvegicus), P16612-2.
T4 sequence: T2 sequence
Put plainly: filter. The settings on record: P=Nap-dU.

Setting [11] is: all P are NapdU, rest DNA, SB18T, 37 C.
Where [12] appears, read: NapdU at 6,7,12,15,16,18,23,24,25,29, rest DNA, SB18T, 37 C.
Where [13] appears, read: VEGF-PDGF heterodimer, no Heg linker, NapdU, BndU.
[14] abbreviates: NapdU at P, C3 spacer 15,18, specificity control.

Chain of PDGF-AB (P01127 82-190, chain 2 of 2, other chains not shown): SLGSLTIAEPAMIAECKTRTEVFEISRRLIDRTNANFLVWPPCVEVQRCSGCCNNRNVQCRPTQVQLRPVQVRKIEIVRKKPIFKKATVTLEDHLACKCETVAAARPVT
Chain of PDGF-BB (platelet-derived growth factor BB) (Homo sapiens) (P01127 82-190): as the sequence (P01127 82-190, chain 2 of 2, other chains not shown) above

On to “CAGCCGTTCAAGTGCTTGTAGGATTTAAAT [4867-31_46]”, for which the Kd in data set [1] (setting [11]) was 5.9 nM; in data set [2] (all P are NapdU), 9.6 nM.

Sequence “CCGTTCAAGTGCTTGTAGGATTTAAATGGCCGTTCAAGTGCTTGTAGGATTTAAATGG [4867-31_395]” gave a Ki in data set [3] of 0.0068 nM.

For CGACAGCATGTATGCACATCT [5169-4_188], the Ki in data set [4] (as 5169-4_146 plus PS 3' of 4,9,10,11,12, 3'-idT, competition with 32P ligand, SB18T, 37 C) is 0.0086 nM.

For “CAGCCGTTCAAGTGCTTGTAGGATTTAAATGGA [4867-31_42]”, the values for the Kd in data set [5] (setting [11]), in [1] (setting [11]) and in data set [2] (all P are NapdU) were 0.2 nM, 0.071 nM and 0.05 nM, respectively.

In [6], “AGCCGTTCAAGTGCTTGTAGGATTTAAATGGA [4867-31_43]” yielded an IC50 of 2.2 nM. Besides, the Kd in data set [5] (setting [12]) was 0.29 nM; in data set [1] (setting [12]), 0.05 nM; in [2] (NapdU at 6,7,12,15,16,18,23,24,25,29) it was 0.05 nM.

Sequence CGACAGCATGTATGCACATCT [5169-4_84] came in with an IC50 in data set [7] (NapdU at P, 2'-OMe 1,4,6,7,14,15,16,18,20,21, PDGFRb phosphorylation, Hs27) of 3.3 nM. The Kd in data set [8] (NapdU at P, 2'-OMe 1,4,6,7,14,15,16,18,20,21) worked out at 0.0053 nM.

Regarding CGACAGCATGTATGCACATCT [5169-4_85], in data set [7] (NapdU at P, 2'-OMe 1,4,6,7,11,14-18,20,21, PDGFRb phosphorylation, Hs27), the IC50 turned out to be 7.3 nM. In data set [8] (NapdU at P, 2'-OMe 1,4,6,7,11,14-18,20,21), this sequence gave a Kd of 0.0062 nM.

For the sequence “CAGCCGTTCAAGTGCTTGTAGGATTTAAA [4867-31_47]”, in [2] (all P are NapdU), the Kd was 83 nM.

Turning to “CCGTTCAAGTGCTTGTAGGATTTAAATGG [4867-31_192]”, in [6] (2'-OMe 6,9,12,15,17,18,22,28,29), the IC50 turned out to be 2.1 nM. The Kd in [5] (NapdU at 4,5,10,13,14,16,21,23,27, 2'-OMe at C6,G9,C12,G15,A17,G18,G28,G29 and 2'-OMe-NapU22, 3'-inverted dT in Tables 26-27, 3'-idT, Table 27 gives 3.1E-11, Table 21 2.3E-11) worked out at 0.011 nM; in [1] (NapdU at 4,5,10,13,14,16,21,23,27, 2'-OMe at C6,G9,C12,G15,A17,G18,G28,G29 and 2'-OMe-NapU22, 3'-inverted dT in Tables 26-27, 5'-OH form), 0.041 nM; in [8] (NapdU at 4,5,10,13,14,16,21,23,27, 2'-OMe at C6,G9,C12,G15,A17,G18,G28,G29 and 2'-OMe-NapU22, 3'-inverted dT in Tables 26-27, specificity control, off-target PDGF-BB), 57 nM.

“CGACAGCATGTATGCACATCTCGACAGCATGTATGCACATCT [5169-4_134]” displayed a Ki in data set [4] (Nap-dU, head-to-tail dimer, no linker) of 0.028 nM.

As for “CCGTTCAAGTGCTTTAGATTTAAATGGTTACGTTACACGCGTTTATAGC [4149-8_313]”, the Kd in [5] (setting [13]) was 4.31 nM; in [1] (Nap-dU (VEGF part), Bn-dU (PDGF part), C3, Heg, 2'-OMe, VEGF), 0.258 nM; in data set [9] (setting [13]), 0.165 nM; in data set [8] (setting [13]), 0.0933 nM.

CGACAGCATGTATGCACATCT [5169-4_26] registered an IC50 in [7] (NapdU (5-(N-naphthylmethylcarboxamide)-2'-deoxyuridine) at 9,11,13,19,21, rest DNA, inhibition of PDGFRbeta phosphorylation) of 1.6 nM. This sequence also came in with a dissociation constant Kd in data set [8] (NapdU (5-(N-naphthylmethylcarboxamide)-2'-deoxyuridine) at 9,11,13,19,21, rest DNA, SB18T, 37 C) of 0.017 nM.

As to “TTACGTTACACGCGTTTATAGCGCCGTTCAAGTGCTTTAGATTTAAATG [4149-8_318]”, the Kd in data set [5] (PDGF-1Heg-VEGF, NapdU, BndU) was determined as 2.47 nM; in data set [1] (Bn-dU, Nap-dU, C3, 1 Heg linker, 2'-OMe, VEGF), 0.27 nM; in data set [9] (PDGF-1Heg-VEGF, NapdU, BndU) it was 0.0818 nM; in [8] (PDGF-1Heg-VEGF, NapdU, BndU) it was 0.0431 nM.

As for “TTACGTTACACGCGTTTATAGCGCCGTTCAAGTGCTTTAGATTTAAATG [4149-8_319]”, the Kd in data set [5] (PDGF-2Heg-VEGF, NapdU, BndU) was determined as 1.07 nM; in [1] (Bn-dU, Nap-dU, C3, 2 Heg linker, 2'-OMe, VEGF), 0.125 nM; in data set [9] (PDGF-2Heg-VEGF, NapdU, BndU), 0.0302 nM; in data set [8] (PDGF-2Heg-VEGF, NapdU, BndU), 0.0242 nM.

As for “TTACGTTACCGCGTTTATAGCGCCGTTCAAGTGCTTGTAGGATTTAAATGG [4149-8_401 (PDGF_379-HHH-VEGF_192)]”, the Kd in data set [5] (Z BndU, P NapdU, M MBndU, superscript 1 2'-OMe, C3 spacer, Heg linkers, 5'-amine, Table 20 gives 3.74E-11) was 0.027 nM; in [1] (Z BndU, P NapdU, M MBndU, superscript 1 2'-OMe, C3 spacer, Heg linkers, 5'-amine, Table 20 gives 2.77E-10), 0.025 nM; in data set [9] (Z BndU, P NapdU, M MBndU, superscript 1 2'-OMe, C3 spacer, Heg linkers, 5'-amine), 0.193 nM; in [8] (Z BndU, P NapdU, M MBndU, superscript 1 2'-OMe, C3 spacer, Heg linkers, 5'-amine, Table 20 gives 1.51E-11), 0.0056 nM.

In [7] (NapdU at 9,11,13,19, 2'-OMe G14,A16 and 2'-OMe-NapU21, inhibition of PDGFRbeta phosphorylation), CGACAGCATGTATGCACATCT [5169-4_112] registered an IC50 of 1 nM. This sequence displayed a Kd in data set [8] (NapdU at P, 2'-OMe 14,16,21) of 0.0062 nM.

In the case of “CCGTTCAAGTGCTTTAGATTTAAATGG [4867-31_183]”, the Kd in data set [5] (NapdU at P, C3 spacer 15,18) came out at 0.091 nM; in [1] (Nap-dU, C3 spacer at 15 and 18, VEGF) it was 0.138 nM; in data set [9] (setting [14]) it was 14.5 nM; in [8] (setting [14]), 195 nM.

As for “AGCCGTTCAAGTGCTTGTAGGATTTAAATGG [4867-31_51]”, the Kd in data set [10] worked out at 0.074 nM; in data set [5] (all P are NapdU, rest DNA, SB18T, 37 C, Table 18 gives 728 pM), 0.2 nM; in [1] (P=Nap-dU, VEGF), 0.196 nM; in data set [1] (setting [11]), 0.11 nM; in data set [9] (P=Nap-dU), 14.8 nM; in data set [8] (all P are NapdU, rest DNA, specificity control), 126 nM.
